# Data as given in publication PMC10413350, “Kinetic and structural characterization of carboxyspermidine dehydrogenase of polyamine biosynthesis” (The Journal of Biological Chemistry, 2023).
# T1: BfCASDH (Bacteroides fragilis, UniProt I9VY56)
# T1 construct: gene HMPREF1080_01141; full length (397 residues modelled per chain), N-terminal hexahistidine tag kept, pET-28b, E. coli BL21 (DE3)
# T1 sequence (I9VY56 1-397): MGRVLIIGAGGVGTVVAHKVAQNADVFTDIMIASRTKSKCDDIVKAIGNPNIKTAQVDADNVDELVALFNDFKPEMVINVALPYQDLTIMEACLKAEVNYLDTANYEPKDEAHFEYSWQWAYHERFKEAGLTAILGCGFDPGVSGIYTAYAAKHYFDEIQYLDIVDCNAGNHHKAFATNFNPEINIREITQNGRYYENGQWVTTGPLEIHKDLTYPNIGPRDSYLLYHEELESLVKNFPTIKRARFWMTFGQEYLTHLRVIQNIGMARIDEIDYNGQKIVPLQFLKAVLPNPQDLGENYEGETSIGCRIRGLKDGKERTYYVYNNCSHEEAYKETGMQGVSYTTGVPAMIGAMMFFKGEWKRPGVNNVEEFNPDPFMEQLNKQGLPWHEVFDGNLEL
# B1: BfCASDH (Bacteroides fragilis CL05T12C13) (protein)
# chain: T1 sequence (I9VY56 1-397)
# notes: full length (397 residues modelled per chain), N-terminal hexahistidine tag kept, pET-28b, E. coli BL21 (DE3)
# B2: ClCASDH ([Clostridium] leptum DSM 753) (protein)
# chain: MGKALIIGCGGVASVAIHKCCQNSGVFEEICIASRTKSKCDALKEKLSGGKTKITTAQVDANSVDELTALINQVKPDVVLNLALPYQDLTIMEACLAAKVNYVDTANYEPEDTAKFEYSWQWAYRKKFEDAGITALLGSGFDPGVTGVFSAYAQKHYFDEINYIDILDCNAGDHGYPFATNFNPEINIREVSAKGSYWEDGHWVETEPMEIKRVYNFPEIGDKDMYLLHHEELESLALNIKGIKRIRFFMTFGQSYLTHLKCLEDVGMTSIEPIEFQGQQIVPLQFLKAVLPDPSSLGPRTKGKTNIGCIFQGKKDGKDKTYYVYNVCDHQECYKEVGSQAVAYTTGVPAMIGAMMLMTGVWNKPGVHNIEEFDPDPFMDALNKWGLPWKESFSPELVD
# notes: full length, N-terminal hexahistidine tag, pET-28b, E. coli BL21 (DE3)
# Columns and labels:
# BfCASDH = target: T1, BfCASDH; assay: intrinsic tryptophan fluorescence quenching (ex […] nm, em […] nm), sigmoidal fit; format: binding
# [1] = target: Bacteroides fragilis carboxyspermidine dehydrogenase (Bacteroides fragilis); assay: SEC; HiLoad 16/600 Superdex 200, 25 mM Tris pH 8; 100 ul of 10 mg/ml (BfCASDH) or 5 mg/ml (ClCASDH) injected
# [2] = target: Clostridium leptum carboxyspermidine dehydrogenase (Clostridium leptum); assay: as above
# purified protein [3] = substrate: NC(=O)C1=CN([C@@H]2O[C@H](COP(=O)(O)OP(=O)(O)OC[C@H]3O[C@@H](n4cnc5c(N)ncnc54)[C@H](OP(=O)(O)O)[C@@H]3O)[C@@H](O)[C@H]2O)C=CC1; assay: purified protein; format: biochemical, Bacteroides fragilis; settings: apparent, 2.5 mM ASA (subsaturating), 20 mM putrescine, 25 mM potassium phosphate pH 7.5, varied: cofactor
# purified protein [4] = substrate: NCCCCN; assay: purified protein; format: biochemical, Bacteroides fragilis; settings: apparent, from Hill equation (half-saturation), 2.5 mM ASA (subsaturating), 150 uM NADPH, 25 mM potassium phosphate pH 7.5
# purified protein [5] = substrate: NCCCN; assay: purified protein; format: biochemical, Bacteroides fragilis; settings: apparent, from Hill equation (half-saturation), 2.5 mM ASA (subsaturating), 150 uM NADPH, 25 mM potassium phosphate pH 7.5
# purified protein [6] = substrate: N[C@@H](CC=O)C(=O)O; assay: purified protein; format: biochemical, Bacteroides fragilis; settings: apparent, from Hill equation (half-saturation), 20 mM putrescine, 150 uM NADPH, 25 mM potassium phosphate pH 7.5, substrate inhibition above 2.5 mM
# purified protein [7] = substrate: NC(=O)C1=CN([C@@H]2O[C@H](COP(=O)(O)OP(=O)(O)OC[C@H]3O[C@@H](n4cnc5c(N)ncnc54)[C@H](OP(=O)(O)O)[C@@H]3O)[C@@H](O)[C@H]2O)C=CC1; assay: purified protein; format: biochemical, [Clostridium] leptum; settings: apparent, 2.5 mM ASA (subsaturating), 20 mM putrescine, 25 mM Tris pH 7.5, varied: cofactor
# purified protein [8] = substrate: NCCCCN; assay: purified protein; format: biochemical, [Clostridium] leptum; settings: apparent, 2.5 mM ASA (subsaturating), 150 uM NADPH, 25 mM Tris pH 7.5
# purified protein [9] = substrate: NCCCN; assay: purified protein; format: biochemical, [Clostridium] leptum; settings: apparent, 2.5 mM ASA (subsaturating), 150 uM NADPH, 25 mM Tris pH 7.5
molecule,measurement,setting,value
NCCCCN [putrescine],Kd,BfCASDH,11 ± 1 mM
Bacteroides fragilis carboxyspermidine dehydrogenase (enzyme),stoichiometry N,[1],2
NCCCN [DAP],Kd,BfCASDH,15 ± 2 mM
Clostridium leptum carboxyspermidine dehydrogenase (enzyme),stoichiometry N,[2],2
B1,Km,purified protein [3],0.057 ± 0.003 mM
same,kcat,purified protein [3],0.39 ± 0.05 s⁻¹
same,kcat/Km,purified protein [3],6700 ± 200 M⁻¹ s⁻¹
same,K0.5,purified protein [4],4.2 ± 0.3 mM
same,kcat,purified protein [4],0.41 ± 0.02 s⁻¹
same,kcat/Km,purified protein [4],96 ± 7 M⁻¹ s⁻¹
same,K0.5,purified protein [5],19.7 ± 3.6 mM
same,kcat,purified protein [5],0.34 ± 0.03 s⁻¹
same,kcat/Km,purified protein [5],17 ± 3 M⁻¹ s⁻¹
same,K0.5,purified protein [6],2.7 ± 0.1 mM
same,kcat,purified protein [6],0.64 ± 0.02 s⁻¹
same,kcat/Km,purified protein [6],230 ± 15 M⁻¹ s⁻¹
B2,Km,purified protein [7],0.016 ± 0.002 mM
same,kcat,purified protein [7],0.22 ± 0.02 s⁻¹
same,kcat/Km,purified protein [7],13800 ± 900 M⁻¹ s⁻¹
same,Km,purified protein [8],5.0 ± 0.6 mM
same,kcat,purified protein [8],0.37 ± 0.01 s⁻¹
same,kcat/Km,purified protein [8],74 ± 10 M⁻¹ s⁻¹
same,Km,purified protein [9],6.9 ± 1.1 mM
same,kcat,purified protein [9],0.49 ± 0.03 s⁻¹
same,kcat/Km,purified protein [9],71 ± 12 M⁻¹ s⁻¹
